Laboratory results reported in patent US10538591B2, “Anti-fibulin-3 antibodies and uses thereof” (THE BRIGHAM AND WOMEN'S HOSPITAL, INC., priority 2014, dated 2020).
Entries after “also recorded” stand apart in the source; their conditions may differ.

Columns and labels:
[1] = system: fibulin-3-induced Notch signaling; experiment: Notch-reporter luminescent assay in CNS1 glioma cells transfected with fibulin-3 cDNA; format: cell-based; conditions: for effect on fibulin-3-induced Notch activity: monoclonal antibody 100 μg/ml, 0, 2, 6 and 24 h
Procedure: Glioma cells (CNS I line) carrying a Notch-reporter luminescent system were transfected with fibulin-3 cDNA (or a control plasmid) and incubated in serum-free conditions for 24 h.
Antibodies against fibulin-3 block the molecular mechanism triggered by this protein. To confirm whether the cytotoxic effects were related to specific inhibition of the molecular mechanisms of fibulin-3, the antibody anti-Fib3/911 was added to glioma cells (CNS1 cell line) that had been transfected to overexpress fibulin-3. Overexpression of fibulin-3 in the glioma cells increased Notch signaling activity as expected.
Glioma cells (CNS1 line) carrying a Notch-driven luminescent reporter system were transfected with fibulin-3 cDNA (Fib3 OE) or a control plasmid (Control) and incubated in serum-free conditions for 24 h. The following day the antibodies anti-Fib3/911 (50 μg/ml) or mAb428.3C11 (100 μg/ml) were added to the cultures and Notch activity was measured after 0, 2, 6, and 24 h.
Glioma cells (CNS1 line) carrying a Notch-driven luminescent reporter system were transfected with fibulin-3 cDNA (Fib3 OE) or a control plasmid (Control) and incubated in serum-free conditions for 24 h. Results on the left panel show the effect of adding mAb428.2 (100 μg/ml), followed by measurement of Notch activity after 0, 2, 6, and 24 h. Results on the right panel show the effect of adding variable concentrations of mAb428.2 (0, 5, 10, 25, 50, and 100 μg/ml), followed by measurement of Notch activity after 6 h.

[2] = system: GBM34 glioblastoma stem cells; experiment: BrdU uptake in tumors after intravenous treatment; format: in vivo, mice; conditions: 8×30 mg/kg IV, BrdU 1 h before euthanasia
Procedure: Control and tumor mice studied in FIG. 11 for overall survival (treated with antibody 8×30 mg/kg, IV) were injected with 5-bromo-2′-deoxyuridine (BrdU, 50 mg/kg, IP) 1 h before euthanasia. BrdU staining of actively dividing cells. Tumors from 3 mice per group were processed for immunohistochemistry to detect BrdU uptake, corresponding to actively dividing cells. Tissue sections were imaged by fluorescence microscopy and quantified blindly using ImageJ image analysis software. DAPI was used to stain cell nuclei. Results were expressed as number of BrdU-positive cells per unit of tumor area. […] (Data not shown).

purified human fibulin-3 = target: T1, purified human fibulin-3 (Homo sapiens, UniProt Q12805); experiment: Western blot and dot-blot detection of fibulin-3; format: binding
T1 construct: purchased ORIGENE
T1 sequence (Q12805 18-493): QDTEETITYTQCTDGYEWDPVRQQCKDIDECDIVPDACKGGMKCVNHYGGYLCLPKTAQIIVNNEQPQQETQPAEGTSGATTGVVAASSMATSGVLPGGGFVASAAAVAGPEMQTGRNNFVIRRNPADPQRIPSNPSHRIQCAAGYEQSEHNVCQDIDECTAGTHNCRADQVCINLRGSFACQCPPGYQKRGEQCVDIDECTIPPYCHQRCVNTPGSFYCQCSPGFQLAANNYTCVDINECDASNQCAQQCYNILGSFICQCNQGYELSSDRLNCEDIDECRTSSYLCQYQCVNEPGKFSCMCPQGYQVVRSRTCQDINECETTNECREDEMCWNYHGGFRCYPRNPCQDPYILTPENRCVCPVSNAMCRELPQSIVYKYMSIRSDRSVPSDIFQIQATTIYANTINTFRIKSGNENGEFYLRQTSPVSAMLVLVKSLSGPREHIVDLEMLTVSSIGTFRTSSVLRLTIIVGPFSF
Procedure: CNSI glioma cells were transfected with fibulin-3 cDNA (fib3-OE cells) or a control plasmid (control cells) and cultured for 24 h in serum-free conditions. Conditioned medium was collected and probed by Western blotting with anti-Fib3/911 (911), anti-Fib3/912 (912), or their respective preimmune sera (antibodies and sera were used at 1/5000 dilution).
Two rabbit polyclonal antibodies were commissioned against the 23-amino acid peptide sequence of fibulin-3 involved in Notch activation. The peptide was minimally modified to facilitate the formation of a disulfide bridge necessary to form a conformational, tri-dimensional epitope (FIG. 4). Antibodies against fibulin-3 (“anti-Fib3/911” and “anti-Fib3/912”) were purified by affinity chromatography, aliquoted, and prepared in phosphate-buffered saline (PBS) solution for all subsequent tests.
Purified human fibulin-3 (200 ng/lane, ORIGENE) was subjected to SDS-PAGE in reducing and non-reducing conditions and probed with affinity-purified mAb428.3C11 (0.4 to 20 μg/ml, diluted in PBS from a 2 mg/ml stock).
Concentrated, serum-free culture medium from HEK293 cells (1 mg/ml total protein) was probed with anti-human IgG secondary antibody (HRP conjugate) to detect the chains of antibody in reducing and non-reducing conditions. C) Concentrated medium from HEK293 cells (1 mg/ml total protein) was directly used to probe purified human fibulin-3 (resolved by SDS-PAGE in non-reducing conditions).

Normal human astrocytes = experiment: Viability of normal human astrocytes; format: cell-based; conditions: mAb428.2, conditions not given
Procedure: Normal human astrocytes and glioma cell lines (U251MG, U87MG and CNS1) were cultured as adherent cells in 96-well plates (10,000 cells/well). Three primary cultures of glioma-initiating cells (GBM8, GBM9 and GBM34) were cultured in suspension using appropriate medium in 96-well plates (25,000 cells/well). All cells were exposed to anti-Fib3/911 (50 μg/mL) or its pre-immune serum for 72 h, followed by measurement of cell viability as indicated in FIG. 5. […] In contrast, normal astrocytes were not affected by the antibody (** p<0.01; *** p<0.001, one-way ANOVA for each cell line)
Antibodies against fibulin-3 induce cytotoxicity in a wide range of glioma cells but not in normal cells. […] This antibody was added to cultures of different glioma cell lines (U251MG, U87MG, CNS1) as well as cultures of glioma initiating cells that produce large amounts of fibulin-3 (GBM8, GBM9, GBM34). […] Vehicle control (PBS) and the pre-immune serum of anti-fibulin-3/91I were tested as controls. Cell viability was measured after 72 hours. […] Neither the vehicle nor the pre-immune serum affected cell viability (FIG. 7).

B1: mAb428.2: mouse monoclonal IgG1 kappa antibody against human fibulin-3 peptide SEQ ID NO:2; VH SEQ ID NO: 3, VL SEQ ID NO: 4 (antibody, V domains shown)
VH: QIQLVQSGPELKKPGETVKISCKASGYSFTTYGMSWVKQAPGKGLKWMGWINTYSGVPTYADDFKGRFAFFLETSASTAYLQINNLKNEDTATYFCARWVDYWGQGTTLTVSS
VL: DIKMTQSPSSMYASLGERVTITCKASQDIKSYLSWHQQKPWKSPKTLIYYATSLADGVPSRFSGSGSGQDYSLTISSLESDDTATYYCLQHGKSPYTFGGGTKLEIK
dependence of Notch inhibition ([1]; 0, 5, 10, 25, 50 and 100 μg/ml, 6 h, 100 μg/ml over 0-24 h): time- and concentration-dependent | effect on fibulin-3-induced Notch activity [1]: blocked fibulin-3-dependent Notch activation; also recorded: strong inhibitory effect | effect on fibulin-3-induced Notch activity ([1]; listed as mAb428.3C11): blocked | fibulin-3 effect on Notch activation ([1]; t=4 h, anti-Fib3/911 50 μg/ml, mAb428.3C11 100 μg/ml): completely abolished fibulin-3 effects on Notch activation | levels of Notch activity ([1]; t=24 h, anti-Fib3/911 50 μg/ml, mAb428.3C11 100 μg/ml): indistinguishable from controls | tumor cell division (BrdU-positive cells per unit of tumor area) [2]: significant decrease in tumor cell division | detection of fibulin-3 by Western blotting (purified human fibulin-3; SDS-PAGE, reducing and/or non-reducing conditions): high sensitivity of the antibody towards fibulin-3 | detection of native fibulin-3 by dot-blotting (purified human fibulin-3; non-reduced fibulin-3 on nitrocellulose, scFv428.2 medium 1 mg/ml, mAb428.2 1 μg/ml): able to detect native fibulin-3 by dot-blotting | effect on normal astrocytes (Normal human astrocytes): without effects on normal astrocytes
